The data set concerns the molecule itself. Briefly: anti-HA immunoblot of lysates of transfected HEK293T cells; band at 2x the expected size (homodimer). How it is done:
FIGS. 35A-35C depict protein expression of MG153 GII derived RTs by immunoblots. Cells were transfected with plasmids containing the candidate RTs and protein expression was evaluated by immunoblot, detecting the HA peptide fused to the N termini of the RTs. All lanes were normalized to total protein concentration. White arrows point to bands at 2× the expected molecular size of the protein, which indicate protein dimers. Lanes not relevant for the described experiment in FIGS. 35A and 35B are covered by white boxes. FIG. 35C: Multiple sequence alignment of GII derived RT. The region shown corresponds to positions 196 through 201 of the alignment. The dimerization motif CAQQ (SEQ ID NO: 2267) is highlighted.
In order to understand protein expression and stability of the GII RTs in mammalian cells, immunoblots were performed. Briefly, transfected cells were lysed with RIPA lysis buffer supplemented with protease inhibitors (80 μL per well in a 24 well format). The lysate was centrifuged at 14,000 g for 10 min at 4° C. in order to remove insoluble aggregates. Proteins were quantified using BCA. […] Proteins were detected by using a rabbit HA antibody, using an HRP-based detection method. […] The expression of each protein was quantified and cDNA synthesis activity was normalized to total protein expression: seven MG153 RTs outperformed the TGIRT control (FIG. 36).

B1: MG153-9 (enzyme)
chain: MESYLTQDRAEPEAGCGANSVSDTEGDGRTVQHDLVEEVVSWSNLEAALKQVVSNRGAPGVDGMTVDELGPWLETNYSELAEKVRNGRYRPNPVRRKEIPKPNGGVRDLGIPTVVDRLLQQAVSQVLMPIYEPSFSDTSYGFRPGRSAHDAIQKAKEYLSEGFGYVVDLDLARFFDTLNQDYLMNILRERVRDKALLELIKRFLRSGVVLPNGLLRETREGSPQGGPLSPLLSNIYLDRFDKLLESRGLRFVRYADDCLVFVRTPRAGERVRESVTRYLEGTLRLRVNQEKTVVGRADQVKFLGFRLYRQKTVGATVHDSSLARFRKEVRRITKRNRGTSLGSVLTELKTFTRGWVGYFRIGLSKSRAEKLDGWIRQRVRQYIFKQWKTLRNRASQLVSLCPDYLRPRPGFTPYSWVRECRRAAFSRSYWKAVNYPVVKRALSNSYLAGLGLYSLSEQLEKWNKGV
notes: Group II intron class C RT, expressed in HEK293T cells as a Flag-HA-MCP fusion (expected 72 kDa including the tag); not shown: N-terminal Flag-HA-MCP tag
Take B1: the binding result was “binds”.

B2: MG153-4 (enzyme)
chain: MDTSSLMEQILSKENLNEAYLQVVRNKGAAGVDGMSVEELGPYLSENGENIREQMRTRKYKPQPVRRVEIPKPDGGVRNLGVPTVVDRFVQQAVAQVLSPIFEEQFHDHSYGFRPNRCAQQAVLKALEMMNDGHNWIVDIDLAKFFDTVDHDKLMTIFGRTIKDGDVISLVRKFLVSGVMIDDEYEDTIVGTPQGGNISPLLANIMLNELDKELEARGLDFVRYADDLIIMVGSRQAAERVMKSVTRFIENKLGLKVNAEKSRVDKPKGIKYLGFGFYFDSFAKGYKARPHMKAVEKFKEQMKKLTCRSWGVSNTYKVKKLNQLIRGWINYFKIGSMKNLCRKLDAHIRFRLRMCIWKQWKTPKNREKNLIKLGLPRYAAHGISYAKGYARVCRSWNLHISISKERLAKFGLISMEDYYAERRVTC
notes: Group II intron class C RT, expressed in HEK293T cells as a Flag-HA-MCP fusion (expected 67.6 kDa including the tag); not shown: N-terminal Flag-HA-MCP tag
As to B2, the binding result is given as “binds”.
